Experimental data taken from the supplement of paper PMC9112550, “Optimization of the antimicrobial peptide Bac7 by deep mutational scanning” (BMC Biology, 2022).

Test system: Escherichia coli TOP10
Test: shrunken log2 fold change of peptide-encoding DNA abundance (4.5 h post-induction vs induction); higher = less antimicrobial activity (less host growth inhibition)
Conditions: time post-induction: 4.5 h; library: site-saturation at positions 5, 18, 19, 20
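Further: peptides expressed intracellularly from a pBAD plasmid library in pooled LB shake-flask culture, induced with 0.3% L-arabinose, DNA abundance read by NGS, three biological replicates, DESeq2 with apeglm shrinkage.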

Row | Sequence | shrunken log2 fold change
1 | RRIRFRPPRLPRPRPRPRDTPRP | 0.0411
2 | RRIRWRPPRLPRPRPRPFFPPRP | -0.0359
3 | RRIRFRPPRLPRPRPRPPNAPRP | 0.353
4 | RRIRVRPPRLPRPRPRPMMMPRP | -0.0802
5 | RRIRGRPPRLPRPRPRPRITPRP | 0.792
6 | RRIRPRPPRLPRPRPRPCEGPRP | 0.156
7 | RRIRSRPPRLPRPRPRPQNAPRP | -0.427
8 | RRIRMRPPRLPRPRPRPELGPRP | 0.276
9 | RRIRARPPRLPRPRPRPHPIPRP | 0.286
10 | RRIRNRPPRLPRPRPRPWADPRP | -0.124
11 | RRIRNRPPRLPRPRPRPQAQPRP | -0.0086
12 | RRIRFRPPRLPRPRPRPRGVPRP | 0.0819
13 | RRIRWRPPRLPRPRPRPVDNPRP | -0.018
14 | RRIRMRPPRLPRPRPRPMIVPRP | -0.101
15 | RRIRYRPPRLPRPRPRPKASPRP | -0.131
16 | RRIRRRPPRLPRPRPRPQLRPRP | 0.213
17 | RRIRHRPPRLPRPRPRPWGLPRP | -0.00494
18 | RRIRWRPPRLPRPRPRPLCEPRP | 0.337
19 | RRIRCRPPRLPRPRPRPPPEPRP | 1.32
20 | RRIRKRPPRLPRPRPRPLFYPRP | -0.0645
21 | RRIRNRPPRLPRPRPRPLIQPRP | -0.327
22 | RRIRWRPPRLPRPRPRPEHGPRP | 0.265
23 | RRIRQRPPRLPRPRPRPHMSPRP | -0.28
24 | RRIRERPPRLPRPRPRPGRLPRP | -0.263
25 | RRIRHRPPRLPRPRPRPPPIPRP | 0.361

Row | Sequence | shrunken log2 fold change
26 | RRIRHRPPRLPRPRPRPRLVPRP | -0.113
27 | RRIRLRPPRLPRPRPRPWAFPRP | 0.00977
28 | RRIRARPPRLPRPRPRPFPHPRP | 0.146
29 | RRIRERPPRLPRPRPRPFRPPRP | -0.179
30 | RRIRCRPPRLPRPRPRPETRPRP | 0.209
31 | RRIRERPPRLPRPRPRPACIPRP | -0.0281
32 | RRIRYRPPRLPRPRPRPAVVPRP | -0.149
33 | RRIRKRPPRLPRPRPRPQAWPRP | 0.314
34 | RRIRGRPPRLPRPRPRPMNFPRP | -0.0655
35 | RRIRWRPPRLPRPRPRPKQEPRP | 0.0489
36 | RRIRCRPPRLPRPRPRPFYIPRP | -0.58
37 | RRIRERPPRLPRPRPRPLYKPRP | -0.769
38 | RRIRMRPPRLPRPRPRPFSFPRP | -0.0784
39 | RRIRKRPPRLPRPRPRPPHPPRP | 0.672
40 | RRIRGRPPRLPRPRPRPAIDPRP | 0.568
41 | RRIRFRPPRLPRPRPRPGICPRP | -0.0925
42 | RRIRLRPPRLPRPRPRPKPFPRP | 2.21
43 | RRIRDRPPRLPRPRPRPCQPPRP | -0.144
44 | RRIRPRPPRLPRPRPRPRCMPRP | 0.0856
45 | RRIRSRPPRLPRPRPRPQNWPRP | 0.269
46 | RRIRKRPPRLPRPRPRPWQTPRP | 0.146
47 | RRIRLRPPRLPRPRPRPLLNPRP | -0.468
48 | RRIRSRPPRLPRPRPRPSAQPRP | 0.198
49 | RRIRVRPPRLPRPRPRPPDKPRP | 0.265
50 | RRIRVRPPRLPRPRPRPTKMPRP | 0.0488

Row | Sequence | shrunken log2 fold change
51 | RRIRERPPRLPRPRPRPWSHPRP | -0.168
52 | RRIRWRPPRLPRPRPRPIMTPRP | -0.00859
53 | RRIRFRPPRLPRPRPRPGMIPRP | -0.224
54 | RRIRYRPPRLPRPRPRPRWPPRP | 0.498
55 | RRIRPRPPRLPRPRPRPIEYPRP | 0.0392
56 | RRIRMRPPRLPRPRPRPACKPRP | 0.484
57 | RRIRPRPPRLPRPRPRPPHMPRP | 0.214
58 | RRIRERPPRLPRPRPRPCPCPRP | -0.341
59 | RRIRHRPPRLPRPRPRPQIIPRP | -0.634
60 | RRIRQRPPRLPRPRPRPINYPRP | -0.0444
61 | RRIRCRPPRLPRPRPRPRYYPRP | -0.612
62 | RRIRSRPPRLPRPRPRPYRQPRP | -0.402
63 | RRIRQRPPRLPRPRPRPCRFPRP | 0.00388
64 | RRIRERPPRLPRPRPRPSTLPRP | -0.999
65 | RRIRCRPPRLPRPRPRPHFKPRP | -0.368
66 | RRIRDRPPRLPRPRPRPYNMPRP | -0.0758
67 | RRIRTRPPRLPRPRPRPTCCPRP | -0.0411
68 | RRIRPRPPRLPRPRPRPKLEPRP | 0.121
69 | RRIRHRPPRLPRPRPRPMAMPRP | 0.00505
70 | RRIRLRPPRLPRPRPRPAWDPRP | 0.0108
71 | RRIRQRPPRLPRPRPRPDFEPRP | 0.0209
72 | RRIRKRPPRLPRPRPRPIFNPRP | -0.0554
73 | RRIRMRPPRLPRPRPRPVRDPRP | 0.882
74 | RRIRQRPPRLPRPRPRPKSFPRP | 0.0406
75 | RRIRQRPPRLPRPRPRPESCPRP | -0.0209

Row | Sequence | shrunken log2 fold change
76 | RRIRHRPPRLPRPRPRPVKGPRP | -0.079
77 | RRIRVRPPRLPRPRPRPQCPPRP | -0.0117
78 | RRIRVRPPRLPRPRPRPYCRPRP | -0.213
79 | RRIRARPPRLPRPRPRPMWGPRP | 0.115
80 | RRIRRRPPRLPRPRPRPAEIPRP | 1.1
81 | RRIRPRPPRLPRPRPRPIRTPRP | 0.289
82 | RRIRGRPPRLPRPRPRPPRNPRP | 1.1
83 | RRIRMRPPRLPRPRPRPMPGPRP | 0.0377
84 | RRIRLRPPRLPRPRPRPVCDPRP | -0.0188
85 | RRIRGRPPRLPRPRPRPAGWPRP | 1.15
86 | RRIRRRPPRLPRPRPRPSGDPRP | 0.233
87 | RRIRFRPPRLPRPRPRPSGRPRP | 0.0486
88 | RRIRDRPPRLPRPRPRPNYVPRP | -0.147
89 | RRIRSRPPRLPRPRPRPHFNPRP | -0.419
90 | RRIRDRPPRLPRPRPRPGLSPRP | 0.241
91 | RRIRTRPPRLPRPRPRPLFRPRP | -0.353
92 | RRIRFRPPRLPRPRPRPYLWPRP | -0.309
93 | RRIRSRPPRLPRPRPRPVQGPRP | 0.108
94 | RRIRLRPPRLPRPRPRPGGLPRP | 0.097
95 | RRIRWRPPRLPRPRPRPTVPPRP | 0.0399
96 | RRIRNRPPRLPRPRPRPFKYPRP | -0.133
97 | RRIRIRPPRLPRPRPRPLTYPRP | -0.495
98 | RRIRNRPPRLPRPRPRPAMRPRP | 0.842
99 | RRIRYRPPRLPRPRPRPHWNPRP | -0.799
100 | RRIRARPPRLPRPRPRPSTPPRP | 0.235

Row | Sequence | shrunken log2 fold change
101 | RRIRDRPPRLPRPRPRPHVKPRP | -0.205
102 | RRIRTRPPRLPRPRPRPEFDPRP | 0.214
103 | RRIRSRPPRLPRPRPRPLYDPRP | -0.113
104 | RRIRRRPPRLPRPRPRPEYQPRP | 0.119
105 | RRIRNRPPRLPRPRPRPRDDPRP | 0.145
106 | RRIRLRPPRLPRPRPRPQCAPRP | 0.228
107 | RRIRIRPPRLPRPRPRPNWTPRP | 0.117
108 | RRIRFRPPRLPRPRPRPPFVPRP | -0.0145
109 | RRIRERPPRLPRPRPRPWRDPRP | -0.268
110 | RRIRQRPPRLPRPRPRPCPPPRP | 0.00708
111 | RRIRRRPPRLPRPRPRPWCPPRP | -0.0442
112 | RRIRPRPPRLPRPRPRPYWGPRP | -0.201
113 | RRIRPRPPRLPRPRPRPAIKPRP | -0.339
114 | RRIRYRPPRLPRPRPRPYMWPRP | -0.43
115 | RRIRYRPPRLPRPRPRPPFGPRP | -0.386
116 | RRIRERPPRLPRPRPRPWFRPRP | -0.214
117 | RRIRYRPPRLPRPRPRPWWVPRP | -0.0131
118 | RRIRHRPPRLPRPRPRPVWRPRP | 0.0724
119 | RRIRMRPPRLPRPRPRPRQQPRP | 0.854
120 | RRIRYRPPRLPRPRPRPWCVPRP | -0.55
121 | RRIRPRPPRLPRPRPRPWCPPRP | 2.07
122 | RRIRMRPPRLPRPRPRPQMNPRP | -0.253
123 | RRIRMRPPRLPRPRPRPDEEPRP | 2.97
124 | RRIRGRPPRLPRPRPRPYQQPRP | 0.0771
125 | RRIRNRPPRLPRPRPRPKLWPRP | -0.0235
